Assay results: article PMC2719692

Molecular target: T1, eEF1α (GST fusion) (rat) (UniProt P62630)
T1 sequence: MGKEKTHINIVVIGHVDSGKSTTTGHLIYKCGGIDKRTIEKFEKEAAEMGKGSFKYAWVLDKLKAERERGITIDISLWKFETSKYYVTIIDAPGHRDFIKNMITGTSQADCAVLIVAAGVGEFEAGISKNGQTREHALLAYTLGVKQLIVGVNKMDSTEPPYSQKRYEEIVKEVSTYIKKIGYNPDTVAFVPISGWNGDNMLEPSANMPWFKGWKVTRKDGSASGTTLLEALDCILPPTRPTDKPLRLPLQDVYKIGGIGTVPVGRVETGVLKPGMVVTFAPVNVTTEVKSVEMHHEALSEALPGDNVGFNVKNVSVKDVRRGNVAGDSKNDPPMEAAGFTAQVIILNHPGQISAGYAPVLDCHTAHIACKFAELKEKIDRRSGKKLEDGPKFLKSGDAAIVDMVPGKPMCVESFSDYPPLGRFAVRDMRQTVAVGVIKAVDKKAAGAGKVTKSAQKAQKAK
Assay: EMSA
Settings: EMSA: 40 mM NaCl, 5 mM MgCl2, 30 mM Tris-HCl pH 7.6, 2 mM DTT, protease inhibitors, 22 °C 15 min, then RNase T1 (described for CHO extract); 12 fmol RNA in …

Sequence: GGAGUGACGAACAGUGCUGCUGCCCUCAGGUGUAAAUAAUUUCCGGACCAACUCAGAGUCUUGCCGUACACCUCCACCCAGUUUACUAAACCCCGUUUUCUACCGAGCAUGUG [MT-111 (MT-1 3′UTR nt 1-111)]
- binding: binds
